Reference: patent US20260242735A1 (UNIVERSIT T BASEL, published 2026)

Key:
Assay in all cases: flow cytometry, transfected cells, IgG;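 further: CD33 point mutants transiently expressed in HEK293-T cells, antibody binding read by fluorescence, background subtracted and normalized to wild-type CD33 as 100%, duplicates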
human CD33 K52T = human CD33 K52T (human, UniProt P20138 18-364)
Method: (§1) An alanine scan on human CD33 was performed to the determine the residues on CD33 that are involved in binding to the antibodies investigated. […] Briefly, a mutation library of CD33 was created by high-throughput, site-directed mutagenesis. Each residue was individually mutated to alanine, with alanine codons mutated to serine. The mutant library was arrayed in 384-well microplates and transiently transfected into HEK293-T. Following transfection, cells were incubated with the indicated antibodies (IgG or Fab) at concentrations pre-determined using an independent immunofluorescence titration curve on wild type CD33. […] Binding of each antibody to each mutant clone was determined in duplicates. For each point, background fluorescence was subtracted from the raw data, which were then normalized to antibody reactivity with wild type CD33.
(§2) Antibodies were screened for binding to the human CD33 variants in IgG format. […] For each mutation, background fluorescence was subtracted from the raw data, which were then normalized to antibody reactivity with wild-type CD33.

human CD33 P132H = human CD33 P132H (human, UniProt P20138 18-364)
Method: as §1, §2

human CD33 P132L = human CD33 P132L (human, UniProt P20138 18-364)
Method: as §1, §2

human CD33 Y127E = human CD33 Y127E (human, UniProt P20138 18-364)
Method: as §1, §2

human CD33 L134Q = human CD33 L134Q (human, UniProt P20138 18-364)
Method: as §1, §2

human CD33 S131G = human CD33 S131G (human, UniProt P20138 18-364)
Method: as §1, §2

human CD33 R122T = human CD33 R122T (human, UniProt P20138 18-364)
Method: as §1, §2

human CD33 M120I = human CD33 M120I (human, UniProt P20138 18-364)
Method: as §1, §2

human CD33 P132S = human CD33 P132S (human, UniProt P20138 18-364)
Method: as §1, §2

human CD33 L134I = human CD33 L134I (human, UniProt P20138 18-364)
Method: as §1, §2

human CD33 Y129S = human CD33 Y129S (human, UniProt P20138 18-364)
Method: as §1, §2

human CD33 P132F = human CD33 P132F (human, UniProt P20138 18-364)
Method: as §1, §2

human CD33 R122F = human CD33 R122F (human, UniProt P20138 18-364)
Method: as §1, §2

human CD33 K52S = human CD33 K52S (human, UniProt P20138 18-364)
Method: as §1, §2

human CD33 Y127R = human CD33 Y127R (human, UniProt P20138 18-364)
Method: as §1, §2

human CD33 P132Q = human CD33 P132Q (human, UniProt P20138 18-364)
Method: as §1, §2

human CD33 K52E = human CD33 K52E (human, UniProt P20138 18-364)
Method: as §1, §2

human CD33 D51K = human CD33 D51K (human, UniProt P20138 18-364)
Method: as §1, §2

human CD33 L134M = human CD33 L134M (human, UniProt P20138 18-364)
Method: as §1, §2

human CD33 S131M = human CD33 S131M (human, UniProt P20138 18-364)
Method: as §1, §2

human CD33 M120V = human CD33 M120V (human, UniProt P20138 18-364)
Method: as §1, §2

human CD33 R122G = human CD33 R122G (human, UniProt P20138 18-364)
Method: as §1, §2

human CD33 S131Q = human CD33 S131Q (human, UniProt P20138 18-364)
Method: as §1, §2

human CD33 M120L = human CD33 M120L (human, UniProt P20138 18-364)
Method: as §1, §2

human CD33 K52G = human CD33 K52G (human, UniProt P20138 18-364)
Method: as §1, §2

human CD33 Y127H = human CD33 Y127H (human, UniProt P20138 18-364)
Method: as §1, §2

human CD33 K52Y = human CD33 K52Y (human, UniProt P20138 18-364)
Method: as §1, §2

human CD33 P132Y = human CD33 P132Y (human, UniProt P20138 18-364)
Method: as §1, §2

human CD33 S131N = human CD33 S131N (human, UniProt P20138 18-364)
Method: as §1, §2

human CD33 R122E = human CD33 R122E (human, UniProt P20138 18-364)
Method: as §1, §2

human CD33 K52L = human CD33 K52L (human, UniProt P20138 18-364)
Method: as §1, §2

human CD33 P132V = human CD33 P132V (human, UniProt P20138 18-364)
Method: as §1, §2

human CD33 S131W = human CD33 S131W (human, UniProt P20138 18-364)
Method: as §1, §2

human CD33 D51N = human CD33 D51N (human, UniProt P20138 18-364)
Method: as §1, §2

human CD33 K52H = human CD33 K52H (human, UniProt P20138 18-364)
Method: as §1, §2

human CD33 D51Y = human CD33 D51Y (human, UniProt P20138 18-364)
Method: as §1, §2

human CD33 S131I = human CD33 S131I (human, UniProt P20138 18-364)
Method: as §1, §2

human CD33 V56R = human CD33 V56R (human, UniProt P20138 18-364)
Method: as §1, §2

Sequence of human CD33 M120I (P20138 18-364 M120I limits assumed): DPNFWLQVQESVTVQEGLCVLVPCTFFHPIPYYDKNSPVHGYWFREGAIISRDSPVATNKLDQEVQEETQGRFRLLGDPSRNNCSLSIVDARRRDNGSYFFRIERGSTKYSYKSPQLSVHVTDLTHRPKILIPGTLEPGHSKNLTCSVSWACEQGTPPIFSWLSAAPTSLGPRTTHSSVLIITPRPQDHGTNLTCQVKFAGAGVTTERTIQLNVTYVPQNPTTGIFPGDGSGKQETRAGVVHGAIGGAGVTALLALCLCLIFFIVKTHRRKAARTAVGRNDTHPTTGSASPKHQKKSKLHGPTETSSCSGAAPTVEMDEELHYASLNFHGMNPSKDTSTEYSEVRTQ
Sequence of human CD33 Y127R (P20138 18-364 Y127R limits assumed): as the sequence (P20138 18-364 M120I limits assumed) above, with I103M, Y110R counted along it
Sequence of human CD33 P132L (P20138 18-364 P132L limits assumed): as the sequence (P20138 18-364 M120I limits assumed) above, with I103M, P115L counted along it
Sequence of human CD33 D51N (P20138 18-364 D51N limits assumed): as the sequence (P20138 18-364 M120I limits assumed) above, with D34N, I103M counted along it
Sequence of human CD33 S131N (P20138 18-364 S131N limits assumed): as the sequence (P20138 18-364 M120I limits assumed) above, with I103M, S114N counted along it
Sequence of human CD33 K52L (P20138 18-364 K52L limits assumed): as the sequence (P20138 18-364 M120I limits assumed) above, with K35L, I103M counted along it
Sequence of human CD33 R122T (P20138 18-364 R122T limits assumed): as the sequence (P20138 18-364 M120I limits assumed) above, with I103M, R105T counted along it
Sequence of human CD33 D51K (P20138 18-364 D51K limits assumed): as the sequence (P20138 18-364 M120I limits assumed) above, with D34K, I103M counted along it
Sequence of human CD33 M120V (P20138 18-364 M120V limits assumed): as the sequence (P20138 18-364 M120I limits assumed) above, with I103V counted along it
Sequence of human CD33 K52T (P20138 18-364 K52T limits assumed): as the sequence (P20138 18-364 M120I limits assumed) above, with K35T, I103M counted along it
Sequence of human CD33 R122F (P20138 18-364 R122F limits assumed): as the sequence (P20138 18-364 M120I limits assumed) above, with I103M, R105F counted along it
Sequence of human CD33 K52S (P20138 18-364 K52S limits assumed): as the sequence (P20138 18-364 M120I limits assumed) above, with K35S, I103M counted along it
Sequence of human CD33 S131W (P20138 18-364 S131W limits assumed): as the sequence (P20138 18-364 M120I limits assumed) above, with I103M, S114W counted along it
Sequence of human CD33 R122G (P20138 18-364 R122G limits assumed): as the sequence (P20138 18-364 M120I limits assumed) above, with I103M, R105G counted along it

Binder	Mean % WT Binding (human CD33 K52T) [%]	Mean % WT Binding (human CD33 P132H) [%]	Mean % WT Binding (human CD33 P132L) [%]	Mean % WT Binding (human CD33 Y127E) [%]	Mean % WT Binding (human CD33 L134Q) [%]	Mean % WT Binding (human CD33 S131G) [%]	Mean % WT Binding (human CD33 R122T) [%]	Mean % WT Binding (human CD33 M120I) [%]	Mean % WT Binding (human CD33 P132S) [%]	Mean % WT Binding (human CD33 L134I) [%]	Mean % WT Binding (human CD33 Y129S) [%]	Mean % WT Binding (human CD33 P132F) [%]	Mean % WT Binding (human CD33 R122F) [%]	Mean % WT Binding (human CD33 K52S) [%]	Mean % WT Binding (human CD33 Y127R) [%]	Mean % WT Binding (human CD33 P132Q) [%]	Mean % WT Binding (human CD33 K52E) [%]	Mean % WT Binding (human CD33 D51K) [%]	Mean % WT Binding (human CD33 L134M) [%]	Mean % WT Binding (human CD33 S131M) [%]	also measured
Refmab #5 (antibody, human IgG1, V domains shown) VH: QVQLVQSGAEVKKPGASVKVSCKASGYTFTNYDINWVRQAPGQGLEWIGWIYPGDGSTKYNEKFKAKATLTADTSTSTAYMELRSLRSDDTAVYYCASGYEDAMDYWGQGTTVTVSS VL: DIQMTQSPSSLSASVGDRVTINCKASQDINSYLSWFQQKPGKAPKTLIYRANRLVDGVPSRFSGSGSGQDYTLTISSLQPEDFATYYCLQYDEFPLTFGGGTKVEIK	5	88.2	89.6	93.9	62.2	97.1	83.2	93	105	92.9	94.7	68.5	90.1	3.8	108	88.4	13.8	4.2	86.1	83.8	Mean % WT Binding (human CD33 M120V): 85.9%; Mean % WT Binding (human CD33 R122G): 94.9%; Mean % WT Binding (human CD33 S131Q): 80.6%; Mean % WT Binding (human CD33 M120L): 103%; Mean % WT Binding (human CD33 K52G): 2.6%; Mean % WT Binding (human CD33 Y127H): 97.2%; Mean % WT Binding (human CD33 K52Y): 2%; Mean % WT Binding (human CD33 P132Y): 84.3%; Mean % WT Binding (human CD33 S131N): 101%; Mean % WT Binding (human CD33 R122E): 95.8%; Mean % WT Binding (human CD33 K52L): 2.2%; Mean % WT Binding (human CD33 P132V): 86.9%; Mean % WT Binding (human CD33 S131W): 94.5%; Mean % WT Binding (human CD33 D51N): 89.4%; Mean % WT Binding (human CD33 K52H): 59.7%; Mean % WT Binding (human CD33 D51Y): 57.1%; Mean % WT Binding (human CD33 S131I): 84.8%; Mean % WT Binding (human CD33 V56R): 87.4%
Refmab #6 (antibody, human IgG1, V domains shown) VH: QVQLQQPGAEVVKPGASVKMSCKASGYTFTSYYIHWIKQTPGQGLEWVGVIYPGNDDISYNQKFQGKATLTADKSSTTAYMQLSSLTSEDSAVYYCAREVRLRYFDVWGQGTTVTVSS VL: EIVLTQSPGSLAVSPGERVTMSCKSSQSVFFSSSQKNYLAWYQQIPGQSPRLLIYWASTRESGVPDRFTGSGSGTDFTLTISSVQPEDLAIYYCHQYLSSRTFGQGTKLEIK	106	86.6	6.1	102	47.1	101	114	102	3.2	89.4	99.6	1.6	92.5	107	108	5.4	121	77.7	99.5	4.3	Mean % WT Binding (human CD33 M120V): 97%; Mean % WT Binding (human CD33 R122G): 112%; Mean % WT Binding (human CD33 S131Q): 18.9%; Mean % WT Binding (human CD33 M120L): 101%; Mean % WT Binding (human CD33 K52G): 105%; Mean % WT Binding (human CD33 Y127H): 112%; Mean % WT Binding (human CD33 K52Y): 26.3%; Mean % WT Binding (human CD33 P132Y): 1.1%; Mean % WT Binding (human CD33 S131N): 84.6%; Mean % WT Binding (human CD33 R122E): 96%; Mean % WT Binding (human CD33 K52L): 99.4%; Mean % WT Binding (human CD33 P132V): 84.6%; Mean % WT Binding (human CD33 S131W): 1.1%; Mean % WT Binding (human CD33 D51N): 92.6%; Mean % WT Binding (human CD33 K52H): 86.1%; Mean % WT Binding (human CD33 D51Y): 71.3%; Mean % WT Binding (human CD33 S131I): 24%; Mean % WT Binding (human CD33 V56R): 93.2%
